Values belong to the binder of their own block, whether it stands above or below them. Primed or numbered codes have the meaning given here. * marks the point of attachment. Biotin = O=C1N[C@H]2[C@H](CS[C@H]2CCCCC(=O)*)N1; FITC′ = fluorescein-isothiocyanate; Ahx = NCCCCCC(=O)O
Tests used:
[1] = molecular target: T1, CBP80/CBP20 complex (human, UniProt Q09161 20-790; P52298 1-156, limits assumed); assay: fluorescence polarization; 1 µM FITC peptide titrated with CBC complex (1-80 µM), 1:1 model
T1 construct: Used in the fluorescence polarization assays; In the crystal it also carried the cap analogue (m7GpppG / m7GpppA); also called CBC complex; CBC
T1 sequence (looked up) 1: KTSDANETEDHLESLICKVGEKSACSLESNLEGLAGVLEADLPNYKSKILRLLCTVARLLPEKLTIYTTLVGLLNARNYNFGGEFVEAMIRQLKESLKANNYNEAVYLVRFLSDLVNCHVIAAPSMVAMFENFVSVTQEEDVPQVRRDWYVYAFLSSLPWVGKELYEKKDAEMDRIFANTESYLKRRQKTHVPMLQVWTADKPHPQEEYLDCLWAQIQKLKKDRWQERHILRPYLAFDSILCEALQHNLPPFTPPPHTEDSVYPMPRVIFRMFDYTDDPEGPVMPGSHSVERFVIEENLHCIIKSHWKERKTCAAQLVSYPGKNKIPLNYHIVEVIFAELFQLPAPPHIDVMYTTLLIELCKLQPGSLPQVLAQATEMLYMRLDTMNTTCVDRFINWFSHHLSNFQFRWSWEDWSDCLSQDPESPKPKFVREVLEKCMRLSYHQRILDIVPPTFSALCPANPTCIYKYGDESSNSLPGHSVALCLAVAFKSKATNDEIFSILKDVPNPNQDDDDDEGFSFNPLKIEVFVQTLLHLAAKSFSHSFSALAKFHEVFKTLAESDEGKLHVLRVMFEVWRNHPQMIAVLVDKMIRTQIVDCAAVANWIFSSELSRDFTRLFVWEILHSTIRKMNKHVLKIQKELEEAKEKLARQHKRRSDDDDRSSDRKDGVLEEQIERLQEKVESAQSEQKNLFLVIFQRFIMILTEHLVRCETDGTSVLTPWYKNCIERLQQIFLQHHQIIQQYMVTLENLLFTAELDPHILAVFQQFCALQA
T1 sequence (looked up) 2: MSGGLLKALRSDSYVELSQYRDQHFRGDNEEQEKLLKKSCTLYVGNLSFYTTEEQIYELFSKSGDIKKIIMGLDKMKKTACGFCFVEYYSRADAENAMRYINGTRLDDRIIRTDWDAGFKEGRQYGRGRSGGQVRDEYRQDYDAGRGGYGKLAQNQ
Protocol: In order to develop a first set of PGC1β mimics, a series of linear peptides encompassing the CBP80-binding domain of PGC1β were designed and synthesized (Table 3). The ability of these peptides to bind to CBP80 in complex with CBP20 (also referred herein as ‘CBC complex’ or simply ‘CBC’) was assessed using a fluorescence polarization assay in the presence of fluorescein-conjugated PGC1β-derived peptide (FITC-Ahx-[…]-NH₂ (SEQ ID NO:XX), where FITC is fluorescein-isothiocyanate and Ahx is 6-aminohexanoic acid).
The assay was performed in a 15-μl scale in a low-volume 384-well black plate on a Tecan M1000 Plate Reader using 470/20 nm excitation and 520/20 nm emission filters. All proteins and peptides were dissolved and diluted in HEPES buffer (50 mM NaCl, 10 mM HEPES […]). Fluorescently labelled PGC1β peptide (FITC-Ahx-[…]-NH₂) was used at 1 μM final concentration, and fluorescence polarization data were recorded at increasing concentration of the CBC complex (1-80 μM) after a 10-min incubation. The resulting concentration-dependent FP curve was fit to a 1:1 binding model to yield dissociation constant (KD) values. Measurements were performed at least in duplicates.

[2] = molecular target: T1, CBP80/CBP20 complex; assay: FP competition assay; FITC-labeled PGC1β peptide as competitor
Protocol: (§1) The relative activity of the PGC1β mimics toward disrupting the interaction between CBC and the fluorescein-conjugated PGC1β-derived peptide was measured in a competition assay. Briefly, a fixed amount of CBC and fluorescein-conjugated PGC1β-derived peptide are incubated with increasing amounts of the PGC1β mimic (FIG. 11A). From the resulting dose-dependent inhibition curves, the in vitro CBC inhibitory activity of the PGC1β mimic compound is measured based on their respective half-maximal inhibitory concentration (IC₅₀) (FIG. 5B). Using this assay, various PGC1β mimics were evaluated for their relative ability to target CBC and disrupt its binding interaction with PGC1β. […] Short peptides derived from the C-terminal domain of PGC1β and PRC proteins, two other members of the PGC1 family of transcriptional coactivators, were also to bind CBC and inhibits its interaction with the fluorescein-labeled PGC1β peptide with IC₅₀ values in the low micromolar range.
IC₅₀ values were determined by adapting the fluorescence polarization assay described above to a competition format. […] Half-maximal inhibitory concentration (IC₅₀) values were calculated from the resulting inhibition curves as given by dose-dependent decrease in the fluorescence polarization signal. […]

[3] = molecular target: T1, CBP80/CBP20 complex; assay: FP competition assay; 1 µM FITC-Ahx-…-NH2 as competitor, 30 µM CBP80/CBP20 complex
Protocol: as §1
^aAc = acetyl; Biot = biotin; Ahx = 6-aminohexanoic acid; Aib = 2-aminoisobutyric acid; CrtDab = N^γ-crotonyl-2,4-diaminobutyric acid. C-terminal ‘-NH₂’ refers to amidated C-terminal end of the peptide. ^bIC₅₀ was determined using fluorescence polarization based competition assay in the presence of 1 μM of FITC-labeled PGC1β (FITC-Ahx-[…]-NH₂, where FITC is fluorescein-isothiocyanate) and 30 μM of the CBP80/CBP20 complex in HEPES buffer (10 mM HEPES, 50 mM NaCl, 5 mM BME, pH 7.5).
(§2) IC₅₀ values were determined by adapting the fluorescence polarization assay described above to a competition format. 1 μM of the FITC-labeled PGC1β peptide (FITC-Ahx-[…]-NH₂) was incubated with 30 μM of the CBP80-CBP20 complex in HEPES Buffer (10 mM HEPES [pH 7.5], 50 mM NaCl and 5 mM 2-mercaptoethanol).

[4] = molecular target: T1, CBP80/CBP20 complex; assay: FP competition assay, alanine scan
Protocol: To examine the tolerance of this compound to sequence modification, an alanine-scanning library was synthesized. This library of PGC1β mimics consisted of 11 linear peptides (PGC1β-2A through PGC1β-12A; Table 3), in which each amino acid residue of the parent PGC1β-wt peptide was replaced with alanine (or with glycine, when the parent residue is alanine). The peptides were tested for their ability to inhibit the CBC-PGC1β interaction using the aforementioned fluorescence polarization-based competition assay. […] These compounds include PGC1β mimics containing non-canonical amino acids such as 2-aminoisobutyric acid (Aib) and […]-crotonyl-2,4-diaminobutyric acid (CrtDab). Aib is an α,α-disubstituted amino acid which is well known for its ability to stabilize α-helical peptide structures as well as increase peptide stability against proteolysis.
as §2

[5] = molecular target: T2, FLAG-PGC1α WT (human, UniProt Q9UBK2 1-798); assay: anti-FLAG IP from C2C12 knock-down cells, western blot
T2 construct: also called FLAG-tagged human (h) PGC1α wild-type; FLAG-PCG1α WT; not shown: FLAG tag
T2 sequence (looked up): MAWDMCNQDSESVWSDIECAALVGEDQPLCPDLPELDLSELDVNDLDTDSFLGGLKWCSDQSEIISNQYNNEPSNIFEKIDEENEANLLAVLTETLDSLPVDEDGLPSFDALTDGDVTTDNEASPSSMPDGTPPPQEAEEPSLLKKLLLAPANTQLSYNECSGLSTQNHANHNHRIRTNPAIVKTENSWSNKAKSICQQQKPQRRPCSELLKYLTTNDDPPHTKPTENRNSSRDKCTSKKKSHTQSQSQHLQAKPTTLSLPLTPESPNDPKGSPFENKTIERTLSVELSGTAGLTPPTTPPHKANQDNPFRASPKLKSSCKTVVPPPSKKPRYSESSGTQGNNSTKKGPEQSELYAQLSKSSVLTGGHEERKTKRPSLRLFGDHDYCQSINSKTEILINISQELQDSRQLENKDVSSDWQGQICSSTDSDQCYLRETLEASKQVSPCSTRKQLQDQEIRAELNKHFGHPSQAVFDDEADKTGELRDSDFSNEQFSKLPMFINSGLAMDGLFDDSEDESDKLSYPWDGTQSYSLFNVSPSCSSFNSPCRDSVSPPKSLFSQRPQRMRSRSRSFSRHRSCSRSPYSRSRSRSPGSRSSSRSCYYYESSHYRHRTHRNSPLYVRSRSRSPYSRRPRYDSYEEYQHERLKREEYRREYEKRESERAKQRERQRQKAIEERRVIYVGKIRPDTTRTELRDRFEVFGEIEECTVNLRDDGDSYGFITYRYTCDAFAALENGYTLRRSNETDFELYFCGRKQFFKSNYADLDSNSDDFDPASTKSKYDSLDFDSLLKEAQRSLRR

Kd [1]: 47 µM
B1: FITC-Ahx-AMDFDSLLKEAQQSLH-NH2 (peptide)
peptide: {FITC′-Ahx}-AMDFDSLLKEAQQSLH-NH2
notes: Tracer of the FP assays; also called fluorescein-conjugated PGC1β-derived peptide; FITC-labeled PGC1β peptide

IC50 [2]: 31 µM | IC50 [3]: 35 µM
B2: Biot-PGC1β (Biot-Ahx-SGG-AMDFDSLLKEAQQSLH-NH2) (peptide)
peptide: {Biotin-Ahx}-SGGAMDFDSLLKEAQQSLH-NH2
SMILES: CSCC[C@H](NC(=O)[C@H](C)NC(=O)CNC(=O)CNC(=O)[C@H](CO)NC(=O)CCCCCNC(=O)CCCC[C@@H]1SC[C@@H]2NC(=O)N[C@@H]21)C(=O)N[C@@H](CC(=O)O)C(=O)N[C@@H](Cc1ccccc1)C(=O)N[C@@H](CC(=O)O)C(=O)N[C@@H](CO)C(=O)N[C@@H](CC(C)C)C(=O)N[C@@H](CC(C)C)C(=O)N[C@@H](CCCCN)C(=O)N[C@@H](CCC(=O)O)C(=O)N[C@@H](C)C(=O)N[C@@H](CCC(N)=O)C(=O)N[C@@H](CCC(N)=O)C(=O)N[C@@H](CO)C(=O)N[C@@H](CC(C)C)C(=O)N[C@@H](Cc1c[nH]cn1)C(N)=O
notes: also called Biot-PGC1β peptide; biotinylated version of the PGC1β peptide

fold improvement of inhibitory activity against PGC1β-wt [4]: ≤ 2 fold | IC50 [3]: 33 µM
B3: PGC1β-9A (Ac-MDFDSLLKAAQQS-NH2) (peptide)
peptide: Ac-MDFDSLLKAAQQS-NH2

binding result [5]: binds
B4: endogenous CBP80 of mouse C2C12 myoblasts (other, UniProt Q3UYV9 1-790, looked up)
chain: MSRRRHSYENDGGQPHKRRKTSDANETEDHLESLICKVGEKSACSLESNLEGLAGVLEADLPNYKSKILRLLCTVARLLPEKLTIYTTLVGLLNARNYNFGGEFVEAMIRQLKESLKANNYNEAVYLVRFLSDLVNCHVIAAPSMVAMFENFVSVTQEEDVPQVRRDWYVYAFLSSLPWVGKELYEKKDAEMDRIFSTTESYLKRRQKTHVPMLQVWTADKPHPQEEYLDCLWAQIQKLKKDRWQERHILRPYLAFDSILCEALQHNLPPFTPPPHTEDSVYPMPRVIFRMFDYTDDPEGPVMPGSHSVERFVIEENLHCIIKSYWKERKTCAAQLVSYPGKNKIPLNYHIVEVIFAELFQLPAPPHIDVMYTTLLIELCKLQPGSLPQVLAQATEMLYMRLDTMSTTCVDRFINWFSHHLSNFQFRWSWEDWSDCLTQDLESPKPKFVREVLEKCMRLSYHQHILDIVPPTFSALCPANPTCIYKYGDESSNSLPGHSVALCLSVAFKSKATNDEIFSILKDVPNPNQVDDDDEGFRFNPLKIEVFVQTLLHLAAKSFSHSFSALAKFHEVFKTLAESDKGKLHVLRVMFEVWRNHPQMIAVLVDKMIRTQIVDCAAVANWIFSSELSRDFTRLFVWEILHSTIRKMNKHVLKIQKELEEAKEKLARQHKRRSDDDDRSSDRKDGALEEQIERLQEKVEAAQSEQKNLFLVIFQRFIMILTEHLVRCETDGTSILTPWYKNCIERLQQIFLQHHQTIQQYMVTLENLLFTAELDPHILAVFQQFCALQA
